Experimental findings from article PMC2995052 (Nucleic Acids Research, 2010) are described below.

This data set concerns the molecule itself. In words: SEC. A general note: In gel filtration, larger molecules generally elute earlier.

B1: P2 C repressor (immunity repressor of temperate Escherichia coli phage P2) (natural protein, bacteriophage P2, UniProt P04132 1-99, looked up)
chain: MSNTISEKIVLMRKSEYLSRQQLADLTGVPYGTLSYYESGRSTPPTDVMMNILQTPQFTKYTLWFMTNQIAPEFGQIAPALAHFGQNETTSPHSGQKTG
As for B1, the stoichiometry N (in general, a count of units in the complex or per binding partner) was 2.
